Data from paper PMC10545747, “Development of cyclopeptide inhibitors of cGAS targeting protein-DNA interaction and phase separation”.

Columns and labels:
[1] = biological target: hcGAS-FL (Homo sapiens, UniProt Q8N884 1-522); test: fluorescence polarization; 300 nM protein, 40 nM DNA; XQ2 competes with IC50 19.2 ± 6.7 uM (inhibitor value, not DNA affinity); FP: 20 mM HEPES pH 7.5, 125 mM KCl, 10 mM MgCl2; 300 nM cGAS, 40 nM FAM-ISD; temperature not stated. MST conditions not given in the material; details: protein: recombinant; tags: 6xHis-SUMO removed by ULP1; label: 5'-FAM on sense strand; blunt
[2] = biological target: hcGAS-FL (D191R) (Homo sapiens, UniProt Q8N884 1-522, D191R); test: fluorescence polarization; D191R did not interfere with dsDNA binding; XQ2 inhibition markedly reduced; FP: 20 mM HEPES pH 7.5, 125 mM KCl, 10 mM MgCl2; 300 nM cGAS, 40 nM FAM-ISD; temperature not stated. MST conditions not given in the material; details: protein: recombinant; tags: 6xHis-SUMO removed by ULP1; label: 5'-FAM on sense strand; blunt
Chain of hcGAS-FL (D191R) (Q8N884 whole entry D191R): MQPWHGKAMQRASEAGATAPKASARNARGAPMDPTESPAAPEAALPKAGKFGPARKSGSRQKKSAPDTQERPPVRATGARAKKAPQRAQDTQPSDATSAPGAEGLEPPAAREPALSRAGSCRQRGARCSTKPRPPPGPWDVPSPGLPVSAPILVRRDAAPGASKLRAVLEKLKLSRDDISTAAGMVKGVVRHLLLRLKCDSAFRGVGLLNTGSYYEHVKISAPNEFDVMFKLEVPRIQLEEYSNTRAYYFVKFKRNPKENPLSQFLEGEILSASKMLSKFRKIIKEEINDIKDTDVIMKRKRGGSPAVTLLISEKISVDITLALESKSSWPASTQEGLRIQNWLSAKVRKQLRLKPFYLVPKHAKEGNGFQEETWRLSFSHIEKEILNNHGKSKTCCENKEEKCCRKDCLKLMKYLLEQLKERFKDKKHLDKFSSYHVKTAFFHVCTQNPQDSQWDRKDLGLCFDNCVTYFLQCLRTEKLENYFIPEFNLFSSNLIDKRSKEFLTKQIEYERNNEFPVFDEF

Chain of hcGAS-FL (Q8N884 whole entry): as the sequence (Q8N884 whole entry D191R) above, with R191D counted along it

B1: 45-bp FAM-ISD (dsDNA)
DNA 1: TACAGATCTACTAGTGATCTATGACTGATCTGTACATGATCTACA
DNA 2: TGTAGATCATGTACAGATCAGTCATAGATCACTAGTAGATCTGTA
[1]
  binding result: binds
[2]
  binding result: binds
